± gives the standard deviation of the averaged measurements.

We go through 32 sequences from the supplement of paper PMC10201428.

The test system of data set [1] is VchCAST RNA-guided transposition machinery (E. coli BL21(DE3) host, lacZ target). Nature of the data set: relative integration efficiency (T-RL orientation) vs wild-type transposon end (log2 (normalized fold change)); transposon end mutated: right end (5 bp flank + 75 bp right end); higher = more efficient transposition. The method in brief:
(§1)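 In E. coli BL21(DE3), a T7-driven effector plasmid was paired with a pUC57 mini-transposon donor containing 1549 left-end or 1849 right-end barcoded transposon variants. Cells grew on plates with 0.1 mM IPTG at 37°C for 18 h. Relative integration efficiency was derived from Illumina reads of genomic integration junctions against input plasmids, as a log-transformed output/input barcode fold change normalised to reference barcodes.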

Data set [2] has the same test system. Nature of the data set: relative integration efficiency (T-LR orientation) vs wild-type transposon end (log2 (normalized fold change)); transposon end mutated: right end (5 bp flank + 75 bp right end); higher = more efficient transposition. An outline of the steps: as §1

As to “ACATTTGTTGATACAACCATAAAATGATAATTACCACCCATAAATTGATAATTATCACACCCATTTAACTATAACGCTCTGATCATAGTCAGACCAACATTGCTACGACCCGTATTCGCACCGACAC”, the “relative integration efficiency (log2)” value was -0.999 ± 0.21 in data set [1] and 1.69 ± 0.051 in data set [2].
Consider “ACATTTGTTGATACAACCATAAAATGATAATTACCACCCATACATTGATAATTATCACACCCATTTAACTATAACGCTCTGATCATAGTCAGACCAACATTGCTACGACCCGTATTCGCACCGACAC”, for which the entries for the “relative integration efficiency (log2)” value in data set [1] and in data set [2] were -2.43 ± 0.1 and 0.106 ± 0.04, respectively.
On to “ACATTTGTTGATACAACCATAAAATGATAATTACCACCCCTAAATTGATAATTATCACACCCATTTAACTATAACGCTCTGATCATAGTCAGACCAACATTGCTACGACCCGTATTCGCACCGACAC”, for which the results for the “relative integration efficiency (log2)” value in data set [1] and in data set [2] were -3.13 ± 0.18 and -0.321 ± 0.18, respectively.
As to “ACATTTGTTGATACAACCATAAAATGATAATTACCACCCCTACATTGATAATTATCACACCCATTTAACTATAACGCTCTGATCATAGTCAGACCAACATTGCTACGACCCGTATTCGCACCGACAC”, the “relative integration efficiency (log2)” value in data set [1] is -3.12 ± 0.17; in data set [2], -0.0894 ± 0.12.
Turning to “ACATTTGTTGATACAACCATAAAATGATAATTACCCCCATAAATTGATAATAATGACACCGAATTTAACTATAACGCTCTGATCATAGTCAGACCAACATTGCTACGACCCGTATTCGCACCGACAC”, the “relative integration efficiency (log2)” value was -1.7 ± 0.48 in data set [1] and 1.94 ± 0.1 in data set [2].
Regarding “ACATTTGTTGATACAACCATAAAATGATAATTACCCCCATAAATTGATAATGATGACACCGAATTTAACTATAACGCTCTGATCATAGTCAGACCAACATTGCTACGACCCGTATTCGCACCGACAC”, the results for the “relative integration efficiency (log2)” value in data set [1] and in data set [2] were -1.63 ± 0.46 and 2.16 ± 0.067, respectively.
Consider “ACATTTGTTGATACAACCATAAAATGATAATTACCCCCATAAATTGATAATTATCACACCCCATTTAACTATAACGCTCTGATCATAGTCAGACCAACATTGCTACGACCCGTATTCGCACCGACAC”, for which the “relative integration efficiency (log2)” value was -0.917 ± 0.1 in data set [1] and 2.089 ± 0.0067 in data set [2].
“ACATTTGTTGATACAACCATAAAATGATAATTACCCCCATAAATTGATAATTATCCCACCCAATTTAACTATAACGCTCTGATCATAGTCAGACCAACATTGCTACGACCCGTATTCGCACCGACAC”: the results for the “relative integration efficiency (log2)” value in data set [1] and in data set [2] were -1.15 ± 0.18 and 2.06 ± 0.12, respectively.
On to “ACATTTGTTGATACAACCATAAAATGATAATTACCCCCATAAATTGATAATTATCCCACCCCATTTAACTATAACGCTCTGATCATAGTCAGACCAACATTGCTACGACCCGTATTCGCACCGACAC”, for which the “relative integration efficiency (log2)” value is -1.32 ± 0.25 in data set [1] and 1.82 ± 0.11 in data set [2].
Consider “ACATTTGTTGATACAACCATAAAATGATAATTACCCCCATAAATTGATAATTGTGACACCGAATTTAACTATAACGCTCTGATCATAGTCAGACCAACATTGCTACGACCCGTATTCGCACCGACAC”, for which the “relative integration efficiency (log2)” value is -1.79 ± 0.38 in data set [1] and 1.94 ± 0.097 in data set [2].
The like results for “ACATTTGTTGATACAACCATAAAATGATAATTACCCCCATCAATTGATAATTATCACACCCAATTTAACTATAACGCTCTGATCATAGTCAGACCAACATTGCTACGACCCGTATTCGCACCGACAC” were, in that order, -2.23 ± 0.41 and 0.506 ± 0.048.
Take “ACATTTGTTGATACAACCATAAAATGATAATTACCCCCATCAATTGATAATTATCACACCCCATTTAACTATAACGCTCTGATCATAGTCAGACCAACATTGCTACGACCCGTATTCGCACCGACAC”: the results for the “relative integration efficiency (log2)” value in data set [1] and in data set [2] were -2.27 ± 0.37 and 0.526 ± 0.33, respectively.
On to “ACATTTGTTGATACAACCATAAAATGATAATTACCCCCATCAATTGATAATTATCCCACCCAATTTAACTATAACGCTCTGATCATAGTCAGACCAACATTGCTACGACCCGTATTCGCACCGACAC”, for which the “relative integration efficiency (log2)” value is -2.38 ± 0.22 in data set [1] and 0.511 ± 0.036 in data set [2].
The like results for “ACATTTGTTGATACAACCATAAAATGATAATTACCCCCATCAATTGATAATTATCCCACCCCATTTAACTATAACGCTCTGATCATAGTCAGACCAACATTGCTACGACCCGTATTCGCACCGACAC” were, in that order, -2.78 ± 0.51 and 0.417 ± 0.32.
Turning to “ACATTTGTTGATACAACCATAAAATGATAATTACTCTGACACCCATAAATTGATAATTATCACACCCATAAATTGATATTGCTCATAGTCAGACCAACATTGCTACGACCCGTATTCGCACCGACAC”, the figures for the “relative integration efficiency (log2)” value in data set [1] and in data set [2] were -2.73 ± 0.083 and 0.8247 ± 0.0022, respectively.
In the case of “ACATTTGTTGATACAACCATAAAATGATAATTACTCTGACACCCATAAATTGATAATTATCAGTGGGTATTTAACTATAACGTCATAGTCAGACCAACATTGCTACGACCCGTATTCGCACCGACAC”, the “relative integration efficiency (log2)” value in data set [1] was -2.06 ± 0.27; in data set [2], 1.33 ± 0.1.
The like results for “ACATTTGTTGATACAACCATAAAATGATAATTACTCTGATCACCCATAAATTGATAATTATCACACCCATAAATTGATATTGCCATAGTCAGACCAACATTGCTACGACCCGTATTCGCACCGACAC” were, in that order, -4.39 ± 0.071 and 0.359 ± 0.11.
With “ACATTTGTTGATACAACCATAAAATGATAATTACTCTGATCACCCATAAATTGATAATTATCAGTGGGTATTTAACTATAACGCATAGTCAGACCAACATTGCTACGACCCGTATTCGCACCGACAC”, the results for the “relative integration efficiency (log2)” value in data set [1] and in data set [2] were -2.48 ± 0.42 and 0.977 ± 0.086, respectively.
The like results for “ACATTTGTTGATACAACCATAAAATGATAATTACTCTGATCATAGTCACACCCATAAATTGATAATTATCACACCCATAAATTGATATTGCGACCAACATTGCTACGACCCGTATTCGCACCGACAC” were, in that order, -4.9525 ± 0.00028 and -1.68 ± 0.39.
For “ACATTTGTTGATACAACCATAAAATGATAATTACTCTGATCATAGTCACACCCATAAATTGATAATTATCAGTGGGTATTTAACTATAACGGACCAACATTGCTACGACCCGTATTCGCACCGACAC”, the “relative integration efficiency (log2)” value in data set [1] is -3.34 ± 0.27; in data set [2], -0.9229 ± 0.0035.
Turning to “ACATTTGTTGATACAACCATAAAATGATAATTACTCTGATCATAGTCAGACACCCATAAATTGATAATTATCACACCCATAAATTGATATTGCCCAACATTGCTACGACCCGTATTCGCACCGACAC”, the “relative integration efficiency (log2)” value is -3.73 ± 0.17 in data set [1] and -0.838 ± 0.091 in data set [2].
Turning to “ACATTTGTTGATACAACCATAAAATGATAATTACTCTGATCATAGTCAGACACCCATAAATTGATAATTATCAGTGGGTATTTAACTATAACGCCAACATTGCTACGACCCGTATTCGCACCGACAC”, the results for the “relative integration efficiency (log2)” value in data set [1] and in data set [2] were -1.71 ± 0.23 and 1.66 ± 0.32, respectively.
As to “ACATTTGTTGATACAACCATAAAATGATAATTACTCTGATCATAGTCAGACCAACATTCACCCATAAATTGATAATTATCACACCCATAAATTGATATTGCGCTACGACCCGTATTCGCACCGACAC”, the “relative integration efficiency (log2)” value is -4.53 ± 0.13 in data set [1] and -2.04 ± 0.32 in data set [2].
Turning to “ACATTTGTTGATACAACCATAAAATGATAATTACTCTGATCATAGTCAGACCAACATTCACCCATAAATTGATAATTATCAGTGGGTATTTAACTATAACGGCTACGACCCGTATTCGCACCGACAC”, the “relative integration efficiency (log2)” value is -3.1 ± 0.26 in data set [1] and -0.137 ± 0.076 in data set [2].
“ACATTTGTTGATACAACCATAAAATGATAATTACTCTGATCATAGTCAGACCAACATTGCTACCACCCATAAATTGATAATTATCACACCCATAAATTGATATTGCGACCCGTATTCGCACCGACAC”: the “relative integration efficiency (log2)” value in data set [1] is -3.63 ± 0.078; in data set [2], -0.553 ± 0.016.
As to “ACATTTGTTGATACAACCATAAAATGATAATTACTCTGATCATAGTCAGACCAACATTGCTACCACCCATAAATTGATAATTATCAGTGGGTATTTAACTATAACGGACCCGTATTCGCACCGACAC”, the entries for the “relative integration efficiency (log2)” value in data set [1] and in data set [2] were -1.54 ± 0.53 and 1.601 ± 0.014, respectively.
As to “ACATTTGTTGATACAACCATAAAATGATAATTACTCTGATCATAGTCAGACCAACATTGCTACGACCCCACCCATAAATTGATAATTATCACACCCATAAATTGATATTGCGTATTCGCACCGACAC”, the “relative integration efficiency (log2)” value was -3.23 ± 0.04 in data set [1] and -0.249 ± 0.18 in data set [2].
For “ACATTTGTTGATACAACCATAAAATGATAATTACTCTGATCATAGTCAGACCAACATTGCTACGACCCCACCCATAAATTGATAATTATCAGTGGGTATTTAACTATAACGGTATTCGCACCGACAC”, the “relative integration efficiency (log2)” value in data set [1] is -2.938 ± 0.018; in data set [2], -0.154 ± 0.0093.
Consider “ACATTTGTTGATACAACCATAAAATGATAATTACTCTGATCATAGTCAGACCAACATTGCTACGACCCGTATTCACCCATAAATTGATAATTATCACACCCATAAATTGATATTGCCGCACCGACAC”, for which the “relative integration efficiency (log2)” value in data set [1] was -3.12 ± 0.47; in data set [2] it was 0.261 ± 0.085.
The like results for “ACATTTGTTGATACAACCATAAAATGATAATTACTCTGATCATAGTCAGACCAACATTGCTACGACCCGTATTCACCCATAAATTGATAATTATCAGTGGGTATTTAACTATAACGCGCACCGACAC” were, in that order, -2.15 ± 0.4 and 1.08 ± 0.33.
Consider “ACATTTGTTGATACAACCATAAAATGATAATTACTCTGATCATAGTCAGACCAACATTGCTACGACCCGTATTCGCACCACCCATAAATTGATAATTATCACACCCATAAATTGATATTGCCGACAC”, for which the figures for the “relative integration efficiency (log2)” value in data set [1] and in data set [2] were -2.767 ± 0.019 and -0.66 ± 0.24, respectively.
Take “ACATTTGTTGATACAACCATAAAATGATAATTACTCTGATCATAGTCAGACCAACATTGCTACGACCCGTATTCGCACCACCCATAAATTGATAATTATCAGTGGGTATTTAACTATAACGCGACAC”: the “relative integration efficiency (log2)” value was -2.38 ± 0.56 in data set [1] and 1.01 ± 0.035 in data set [2].
